Measured values from the supplement of paper PMC10065799, “High-throughput profiling of sequence recognition by tyrosine kinases and SH2 domains using bacterial peptide display” (eLife, 2023).

Key:
c-Src = experiment: phosphorylation enrichment, bacterial display (enrichment ratio); higher = better substrate or ligand; peptides without Tyr show the background
Hck = Hck (UniProt P08631); experiment: as above
Jak2 = Jak2 (UniProt O60674); experiment: as above
MERTK = MERTK (UniProt Q12866); experiment: as above
Sequence of MERTK (Q12866 whole entry, looked up): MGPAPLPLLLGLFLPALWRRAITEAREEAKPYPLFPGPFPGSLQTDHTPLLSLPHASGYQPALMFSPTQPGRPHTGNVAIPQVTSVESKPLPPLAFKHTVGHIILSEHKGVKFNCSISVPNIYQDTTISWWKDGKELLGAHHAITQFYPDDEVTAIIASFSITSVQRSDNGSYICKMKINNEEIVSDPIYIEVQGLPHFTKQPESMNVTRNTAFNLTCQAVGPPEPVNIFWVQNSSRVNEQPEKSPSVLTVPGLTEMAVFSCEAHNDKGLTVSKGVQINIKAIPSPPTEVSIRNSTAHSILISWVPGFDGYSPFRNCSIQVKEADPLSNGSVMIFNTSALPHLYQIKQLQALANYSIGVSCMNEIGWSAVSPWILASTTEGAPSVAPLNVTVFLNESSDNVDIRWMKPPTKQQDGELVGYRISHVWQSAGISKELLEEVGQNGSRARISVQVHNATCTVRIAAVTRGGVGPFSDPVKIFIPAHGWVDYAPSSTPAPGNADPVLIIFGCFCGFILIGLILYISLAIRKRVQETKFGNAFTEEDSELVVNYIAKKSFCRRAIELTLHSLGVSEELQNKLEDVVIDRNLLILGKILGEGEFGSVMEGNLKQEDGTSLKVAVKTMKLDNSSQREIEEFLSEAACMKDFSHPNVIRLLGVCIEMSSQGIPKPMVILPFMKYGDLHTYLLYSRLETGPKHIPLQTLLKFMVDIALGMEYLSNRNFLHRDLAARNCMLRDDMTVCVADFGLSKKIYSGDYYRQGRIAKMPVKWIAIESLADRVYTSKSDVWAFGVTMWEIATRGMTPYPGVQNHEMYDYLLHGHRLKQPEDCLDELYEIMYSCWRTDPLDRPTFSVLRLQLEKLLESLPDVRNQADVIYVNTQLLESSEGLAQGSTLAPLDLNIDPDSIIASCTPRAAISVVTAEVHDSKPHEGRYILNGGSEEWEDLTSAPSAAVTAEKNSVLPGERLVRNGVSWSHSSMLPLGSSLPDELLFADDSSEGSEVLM

EPHB1 = EPHB1 (UniProt P54762); experiment: as above
FGFR3 = FGFR3 (UniProt P22607); experiment: as above
c-Abl (mouse) = experiment: as above
AncSZ = experiment: as above
EPHB2 = EPHB2 (UniProt P29323); experiment: as above
Fes = Fes (UniProt P07332); experiment: as above
Sequence of Fes (P07332 whole entry, looked up): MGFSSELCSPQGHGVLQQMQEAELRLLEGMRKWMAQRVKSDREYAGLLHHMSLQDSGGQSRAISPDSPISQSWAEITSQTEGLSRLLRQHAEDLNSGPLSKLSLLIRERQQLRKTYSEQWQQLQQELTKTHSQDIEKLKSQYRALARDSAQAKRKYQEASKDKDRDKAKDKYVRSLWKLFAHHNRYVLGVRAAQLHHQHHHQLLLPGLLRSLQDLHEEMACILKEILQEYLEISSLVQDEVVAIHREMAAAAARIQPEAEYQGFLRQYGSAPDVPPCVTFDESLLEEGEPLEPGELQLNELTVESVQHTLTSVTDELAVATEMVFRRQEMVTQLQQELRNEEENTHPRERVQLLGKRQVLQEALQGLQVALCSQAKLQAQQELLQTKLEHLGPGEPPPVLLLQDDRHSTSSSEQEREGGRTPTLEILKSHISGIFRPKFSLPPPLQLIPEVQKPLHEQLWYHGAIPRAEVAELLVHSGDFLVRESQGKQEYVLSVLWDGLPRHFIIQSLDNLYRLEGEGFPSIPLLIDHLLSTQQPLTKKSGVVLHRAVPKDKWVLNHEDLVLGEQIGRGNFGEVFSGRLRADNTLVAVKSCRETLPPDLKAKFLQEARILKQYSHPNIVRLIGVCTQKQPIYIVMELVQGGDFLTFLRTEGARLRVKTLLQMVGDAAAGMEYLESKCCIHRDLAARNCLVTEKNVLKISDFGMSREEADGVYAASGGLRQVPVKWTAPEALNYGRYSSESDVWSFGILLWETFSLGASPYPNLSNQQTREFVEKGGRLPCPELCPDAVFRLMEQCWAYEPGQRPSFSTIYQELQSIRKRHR

Fer (mouse) = experiment: as above
Fyn = Fyn (UniProt P06241); experiment: as above
Sequence of Fyn (P06241 whole entry, looked up): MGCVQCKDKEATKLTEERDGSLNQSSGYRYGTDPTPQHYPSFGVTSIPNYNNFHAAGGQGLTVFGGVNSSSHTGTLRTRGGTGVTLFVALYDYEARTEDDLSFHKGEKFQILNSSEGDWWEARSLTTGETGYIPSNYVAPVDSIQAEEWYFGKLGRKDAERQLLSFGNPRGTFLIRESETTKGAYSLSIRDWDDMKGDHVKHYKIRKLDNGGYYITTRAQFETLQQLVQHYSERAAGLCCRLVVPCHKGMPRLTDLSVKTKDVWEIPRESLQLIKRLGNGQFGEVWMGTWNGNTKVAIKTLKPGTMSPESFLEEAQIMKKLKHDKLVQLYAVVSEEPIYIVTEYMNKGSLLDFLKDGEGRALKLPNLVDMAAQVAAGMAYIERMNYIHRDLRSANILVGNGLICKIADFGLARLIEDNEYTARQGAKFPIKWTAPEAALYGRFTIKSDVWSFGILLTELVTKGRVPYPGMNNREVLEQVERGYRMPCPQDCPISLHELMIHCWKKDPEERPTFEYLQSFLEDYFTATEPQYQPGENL

FGFR1 = FGFR1 (UniProt P11362); experiment: as above
Sequence of FGFR1 (P11362 whole entry, looked up): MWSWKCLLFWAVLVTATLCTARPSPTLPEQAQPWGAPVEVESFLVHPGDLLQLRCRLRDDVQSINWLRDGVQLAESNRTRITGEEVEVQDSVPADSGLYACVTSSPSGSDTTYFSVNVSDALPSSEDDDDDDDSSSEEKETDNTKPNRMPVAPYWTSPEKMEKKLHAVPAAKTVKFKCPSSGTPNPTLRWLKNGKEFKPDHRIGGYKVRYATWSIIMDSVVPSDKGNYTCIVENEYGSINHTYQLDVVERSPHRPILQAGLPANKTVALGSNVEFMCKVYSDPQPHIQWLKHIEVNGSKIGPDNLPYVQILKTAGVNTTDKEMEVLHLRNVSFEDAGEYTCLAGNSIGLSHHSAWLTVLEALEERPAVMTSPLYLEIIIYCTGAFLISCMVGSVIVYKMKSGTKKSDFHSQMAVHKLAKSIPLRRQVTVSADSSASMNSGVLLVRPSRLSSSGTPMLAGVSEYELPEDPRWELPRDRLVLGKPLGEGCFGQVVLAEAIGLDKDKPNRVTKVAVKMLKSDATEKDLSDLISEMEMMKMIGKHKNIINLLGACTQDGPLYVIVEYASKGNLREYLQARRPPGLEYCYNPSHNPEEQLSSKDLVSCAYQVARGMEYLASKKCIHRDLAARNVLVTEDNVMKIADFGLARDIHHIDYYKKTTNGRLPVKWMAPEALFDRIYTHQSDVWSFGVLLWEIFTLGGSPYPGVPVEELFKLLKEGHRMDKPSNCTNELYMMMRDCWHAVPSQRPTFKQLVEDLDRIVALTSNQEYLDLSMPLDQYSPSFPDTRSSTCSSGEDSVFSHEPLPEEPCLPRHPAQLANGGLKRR

Grb2 SH2 = Grb2 SH2 (UniProt P62993); experiment: SH2 binding enrichment of the phosphorylated peptide, bacterial display (enrichment ratio); higher = better substrate or ligand; peptides without Tyr show the background
c-Src SH2 = experiment: as above
SHP2-C SH2 = experiment: as above
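Throughout, for SH2 binding enrichment of the phosphorylated peptide, bacterial display: peptide library displayed on the E. coli surface as eCPX fusions, selected cells deep-sequenced, score is each peptide's frequency after selection divided by its frequency in the input.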
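Throughout, for phosphorylation enrichment, bacterial display: 11-residue human phosphosite peptides and single-mutation variants displayed on the E. coli surface, counted by deep sequencing, each peptide's frequency after selection divided by its frequency in the unselected input library; frequency after pTyr selection over input frequency; kinase dosed for 20-30% of maximal phosphorylation in three min.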

Sequence of Hck (P08631 whole entry, looked up): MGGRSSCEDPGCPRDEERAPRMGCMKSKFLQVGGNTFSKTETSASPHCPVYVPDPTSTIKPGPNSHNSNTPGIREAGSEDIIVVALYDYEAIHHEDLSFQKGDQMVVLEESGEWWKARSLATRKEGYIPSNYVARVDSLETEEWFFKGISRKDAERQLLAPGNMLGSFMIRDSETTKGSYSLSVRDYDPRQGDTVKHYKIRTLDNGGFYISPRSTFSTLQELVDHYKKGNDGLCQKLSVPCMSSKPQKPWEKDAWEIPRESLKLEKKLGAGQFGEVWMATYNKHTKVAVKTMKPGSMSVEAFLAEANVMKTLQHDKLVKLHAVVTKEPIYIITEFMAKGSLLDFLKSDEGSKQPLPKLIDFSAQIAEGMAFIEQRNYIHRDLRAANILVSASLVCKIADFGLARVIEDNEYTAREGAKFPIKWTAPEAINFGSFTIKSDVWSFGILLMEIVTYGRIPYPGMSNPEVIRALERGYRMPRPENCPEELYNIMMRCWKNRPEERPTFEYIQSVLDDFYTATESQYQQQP
Sequence of Jak2 (O60674 whole entry, looked up): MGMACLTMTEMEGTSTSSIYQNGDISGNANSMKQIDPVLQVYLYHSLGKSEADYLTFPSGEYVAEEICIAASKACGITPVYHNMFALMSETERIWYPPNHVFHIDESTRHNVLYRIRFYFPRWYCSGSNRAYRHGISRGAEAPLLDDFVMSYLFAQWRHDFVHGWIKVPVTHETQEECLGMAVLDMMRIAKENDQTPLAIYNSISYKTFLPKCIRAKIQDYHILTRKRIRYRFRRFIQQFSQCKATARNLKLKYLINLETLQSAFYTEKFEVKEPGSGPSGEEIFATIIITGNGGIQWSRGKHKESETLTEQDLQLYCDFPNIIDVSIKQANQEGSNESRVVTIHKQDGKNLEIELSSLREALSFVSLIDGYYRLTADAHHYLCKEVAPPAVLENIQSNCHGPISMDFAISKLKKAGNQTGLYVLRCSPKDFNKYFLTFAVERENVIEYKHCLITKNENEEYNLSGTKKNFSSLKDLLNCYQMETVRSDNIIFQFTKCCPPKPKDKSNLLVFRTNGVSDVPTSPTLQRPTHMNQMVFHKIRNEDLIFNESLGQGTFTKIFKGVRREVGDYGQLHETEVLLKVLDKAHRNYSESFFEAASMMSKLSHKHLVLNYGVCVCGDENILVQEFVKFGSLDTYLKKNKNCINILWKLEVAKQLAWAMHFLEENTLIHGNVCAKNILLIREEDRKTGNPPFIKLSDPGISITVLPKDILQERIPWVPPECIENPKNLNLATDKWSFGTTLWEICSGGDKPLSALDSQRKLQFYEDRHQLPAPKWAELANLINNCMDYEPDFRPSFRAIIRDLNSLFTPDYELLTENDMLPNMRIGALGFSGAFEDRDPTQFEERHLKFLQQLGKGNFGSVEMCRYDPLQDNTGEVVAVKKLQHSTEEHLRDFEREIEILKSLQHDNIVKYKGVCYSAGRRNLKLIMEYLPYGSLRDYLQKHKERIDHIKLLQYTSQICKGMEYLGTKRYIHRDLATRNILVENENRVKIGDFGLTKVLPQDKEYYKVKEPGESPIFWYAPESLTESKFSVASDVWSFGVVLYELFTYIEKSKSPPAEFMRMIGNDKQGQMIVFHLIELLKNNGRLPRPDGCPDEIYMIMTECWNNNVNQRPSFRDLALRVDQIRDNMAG

| Sequence | SH2 binding enrichment (Grb2 SH2) | SH2 binding enrichment (c-Src SH2) | SH2 binding enrichment (SHP2-C SH2) | phosphorylation enrichment (c-Src) | phosphorylation enrichment (Hck) | phosphorylation enrichment (Jak2) | phosphorylation enrichment (MERTK) | phosphorylation enrichment (EPHB1) | phosphorylation enrichment (FGFR3) | phosphorylation enrichment (c-Abl (mouse)) | phosphorylation enrichment (AncSZ) | phosphorylation enrichment (EPHB2) | phosphorylation enrichment (Fes) | phosphorylation enrichment (Fer (mouse)) | phosphorylation enrichment (Fyn) | phosphorylation enrichment (FGFR1) |
| --- | --- | --- | --- | --- | --- | --- | --- | --- | --- | --- | --- | --- | --- | --- | --- | --- |
| HNLDFYKKTTN [FGFR3_Y648_YF] | 1.02 | 0.5 | 0.602 | 2.23 | 1.15 | 5.47 | 1.95 | 1.76 | 1.68 | 3.49 | 3.51 | 2.13 | 3.91 | 2.46 | 0.916 | 1.28 |
| HNVPIYEGFAL [ACTA1_Y168_YF] | 0.849 | 0.431 | 0.794 | 10.6 | 14.1 | 0.894 | 12.4 | 22.5 | 0.785 | 23.5 | 1.59 | 28.1 | 7.74 | 22.7 | 15.1 | 0.649 |
| HPFHVYSQPGM [BAG3_Y114_P115S] | 1.39 | 18.1 | 0.806 | 0.937 | 1.74 | 0.984 | 0.804 | 0.649 | 0.908 | 0.847 | 1.78 | 0.945 | 1.39 | 0.719 | 1.24 | 0.753 |
| HRFAAYFQQGD [GPI_Y351] | 0.97 | 0.662 | 0.77 | 0.609 | 0.501 | 1.59 | 0.643 | 0.88 | 0.897 | 0.979 | 1.17 | 0.759 | 1.79 | 0.496 | 0.633 | 0.962 |
| IAINKYEVSLI [MYO7A_Y2136_G2137E] | 0.805 | 0.59 | 0.981 | 0.451 | 0.493 | 0.851 | 0.371 | 0.505 | 0.635 | 0.598 | 0.89 | 0.562 | 0.99 | 0.486 | 0.514 | 0.445 |
| IDAICYYRMEN [NPHS2_Y194] | 0.71 | 0.499 | 0.534 | 1.71 | 0.8 | 3.15 | 0.844 | 0.786 | 3.18 | 0.927 | 1.99 | 0.721 | 1.49 | 0.642 | 0.66 | 3.09 |
| IEDPYYGNDSD [ACP1_Y133] | 1.07 | 0.623 | 0.709 | 1.6 | 0.759 | 1.35 | 0.45 | 0.638 | 1.09 | 0.83 | 1.5 | 0.809 | 1.39 | 0.548 | 0.81 | 0.807 |
| IEENGYNTYAS [FGF10_Y161] | 0.759 | 1.12 | 0.64 | 0.6 | 0.645 | 0.802 | 0.422 | 0.534 | 0.674 | 0.64 | 1.02 | 0.593 | 1.12 | 0.49 | 0.606 | 0.562 |
| IFHLSYLHNCE [PDE6B_Y227_YF] | 1.18 | 0.862 | 0.894 | 0.431 | 0.512 | 0.956 | 0.436 | 0.589 | 0.856 | 0.782 | 0.985 | 0.566 | 1.26 | 0.562 | 0.546 | 0.494 |
| IGEGTYRQVYK [CDK13_Y716_G717R] | 0.874 | 0.589 | 0.89 | 0.521 | 0.411 | 0.655 | 0.319 | 0.289 | 0.391 | 0.492 | 0.492 | 0.465 | 0.546 | 0.449 | 0.368 | 0.42 |
| IGRWVYPLTPE [EIF2B5_Y319_R315G] | 0.962 | 0.62 | 0.878 | 0.502 | 0.509 | 0.874 | 0.551 | 0.563 | 0.646 | 0.717 | 1.33 | 0.58 | 1.02 | 0.461 | 0.49 | 0.564 |
| IIEDPYYGNDS [ACP1_Y132] | 0.88 | 0.837 | 0.492 | 2.73 | 0.918 | 1.33 | 0.522 | 0.561 | 0.869 | 0.849 | 1.46 | 0.623 | 1.22 | 0.632 | 0.958 | 0.851 |
| IINENYDFLKV [NUP98_Y1664_G1669V_YF] | 0.588 | 0.588 | 0.958 | 0.655 | 2.17 | 0.97 | 0.838 | 0.794 | 0.779 | 0.668 | 1.05 | 0.92 | 1.01 | 2.45 | 0.512 | 0.862 |
| ILGRYYERGSI [PAX5_Y73_T75R] | 0.889 | 0.84 | 0.671 | 0.401 | 0.495 | 0.563 | 0.408 | 0.493 | 0.552 | 0.519 | 0.449 | 0.531 | 0.726 | 0.474 | 0.498 | 0.466 |
| ILGRYYETSSI [PAX2_Y73_G76S] | 0.782 | 2.39 | 1.02 | 0.466 | 0.524 | 0.632 | 0.594 | 0.527 | 0.802 | 0.55 | 0.724 | 0.476 | 0.705 | 0.629 | 0.547 | 0.86 |
| ILKPDYQPLAI [HYDIN_Y1072] | 0.814 | 0.541 | 0.847 | 0.376 | 0.484 | 0.556 | 0.425 | 0.489 | 0.533 | 0.62 | 0.613 | 0.403 | 0.65 | 0.379 | 0.415 | 0.376 |
| IPGRFYETGSI [PAX2_Y73_L69P_YF] | 0.841 | 1.11 | 0.803 | 0.549 | 0.517 | 0.662 | 0.415 | 0.441 | 0.614 | 0.552 | 0.733 | 0.858 | 0.723 | 0.357 | 0.492 | 0.635 |
| IRKDLYSNNVL [ACTC1_Y296_A297S] | 0.836 | 0.611 | 0.835 | 0.322 | 0.419 | 0.471 | 0.518 | 0.497 | 0.422 | 0.444 | 0.506 | 0.476 | 0.553 | 0.414 | 0.415 | 0.425 |
| IRRSSYEDSSL [HNF4A_Y144_T139I] | 0.749 | 0.47 | 0.588 | 0.591 | 0.53 | 0.65 | 0.485 | 0.444 | 0.487 | 0.824 | 0.705 | 0.543 | 0.758 | 0.526 | 0.481 | 0.411 |
| ISGGGYRACPA [FGB_Y71_R74C] | 0.958 | 0.533 | 0.715 | 0.361 | 0.432 | 0.61 | 0.409 | 0.51 | 0.52 | 0.58 | 0.915 | 0.404 | 0.818 | 0.495 | 0.44 | 0.469 |
| ISKTWYSAEQF [CD207_Y217_P213S] | 0.822 | 0.689 | 0.781 | 0.522 | 0.481 | 0.604 | 7.68 | 1.84 | 0.757 | 0.585 | 0.793 | 1.8 | 0.837 | 0.521 | 0.532 | 0.605 |
| IVKAYYVHARA [AIPL1_Y268_R270H] | 1.25 | 0.823 | 1.95 | 0.432 | 0.595 | 0.818 | 0.572 | 0.567 | 0.633 | 0.663 | 0.857 | 0.533 | 0.978 | 0.574 | 0.424 | 0.538 |

More lines, main results first:

| SH2 binding enrichment (Grb2 SH2) | SH2 binding enrichment (c-Src SH2) | SH2 binding enrichment (SHP2-C SH2) | Sequence | phosphorylation enrichment (c-Src) | phosphorylation enrichment (Hck) | phosphorylation enrichment (Jak2) | phosphorylation enrichment (MERTK) | phosphorylation enrichment (EPHB1) | phosphorylation enrichment (FGFR3) | phosphorylation enrichment (c-Abl (mouse)) | phosphorylation enrichment (AncSZ) | phosphorylation enrichment (EPHB2) | phosphorylation enrichment (Fes) | phosphorylation enrichment (Fer (mouse)) | phosphorylation enrichment (Fyn) | phosphorylation enrichment (FGFR1) |
| --- | --- | --- | --- | --- | --- | --- | --- | --- | --- | --- | --- | --- | --- | --- | --- | --- |
| 1.24 | 0.695 | 1.11 | HRGYLYLAIEY [TEK_Y899] | 0.375 | 0.466 | 1.03 | 0.486 | 0.558 | 0.602 | 1.24 | 1.23 | 0.485 | 1.22 | 0.432 | 0.485 | 0.521 |
| 0.865 | 0.425 | 0.702 | HYVYYYSYLLK [PTEN_Y178_R173H] | 3.08 | 3.19 | 2.42 | 5.74 | 2.74 | 5.92 | 2.31 | 2.09 | 1.37 | 2.12 | 0.888 | 1.29 | 6.85 |
| 0.913 | 0.675 | 0.861 | ICANKYMVESC [RPL10_Y75_K78E] | 0.53 | 0.574 | 0.982 | 0.432 | 0.482 | 0.659 | 0.657 | 0.982 | 0.502 | 1.14 | 0.455 | 0.47 | 0.596 |
| 0.811 | 0.533 | 0.521 | IENKLYGMSDP [RET_Y1062] | 0.698 | 0.732 | 0.617 | 0.546 | 0.506 | 0.689 | 0.707 | 0.941 | 0.653 | 0.988 | 0.666 | 0.613 | 0.585 |
| 0.941 | 0.996 | 1.22 | IFLGAYDRFLP [SLC22A5_Y486_V481I_YF] | 3.69 | 3.39 | 0.896 | 3.84 | 0.84 | 0.608 | 0.932 | 1.06 | 1.41 | 1 | 1.1 | 2.45 | 0.427 |
| 0.768 | 0.34 | 0.568 | IIRRLYLKWHP [SACS_Y4333] | 0.571 | 0.497 | 0.819 | 0.612 | 0.508 | 0.596 | 0.721 | 1.04 | 0.543 | 0.904 | 0.453 | 0.535 | 0.474 |
| 0.83 | 1.98 | 0.543 | IQRSLYDRPAS [PDGFRA_Y762] | 0.458 | 1.59 | 0.577 | 0.689 | 0.488 | 0.469 | 0.541 | 0.699 | 0.479 | 0.643 | 0.988 | 0.613 | 0.489 |
| 0.748 | 0.438 | 0.762 | IRDLKYTIENP [SND1_Y178] | 0.47 | 0.507 | 1.19 | 0.407 | 0.521 | 0.807 | 0.785 | 1.21 | 0.522 | 1.38 | 0.541 | 0.456 | 0.776 |
| 1.47 | 1.1 | 3.41 | ISHVAYLVLGK [TRRAP_Y892_R893L] | 0.454 | 0.485 | 0.996 | 0.53 | 0.805 | 0.75 | 0.588 | 0.95 | 0.5 | 1.07 | 0.505 | 0.507 | 0.535 |
| 0.88 | 0.564 | 0.68 | IVEELYAIPPD [PEAK1_Y797_S792I] | 3.23 | 4.27 | 1.27 | 8.66 | 4.29 | 6.02 | 10 | 3.84 | 13.3 | 1.26 | 6.14 | 3.48 | 6.62 |
| 0.985 | 1.09 | 0.993 | IVRSLYEDQED [VHL_Y185_L188Q] | 0.59 | 0.581 | 1.3 | 0.482 | 0.67 | 0.742 | 0.826 | 1.39 | 0.621 | 1.36 | 0.523 | 0.477 | 0.67 |
